Assay results reported in paper PMC9279936.
pKd: −log10 of the molar value.

Tests used:
[1] = test system: influenza A virus hemagglutinin (on whole virus particles) (Influenza A virus (strain not in the material)); test: BLI; conditions: BLI: 10 mM Tris-HCl pH 7.5, 140 mM NaCl, 10 mM KCl ([…], temperature not stated; cited from earlier work
[2] = test system: influenza A virus hemagglutinin (on whole virus particles) (Influenza A virus (strain not in the material)); test: BLI; conditions: BLI: 10 mM Tris-HCl pH 7.5, 140 mM NaCl, 10 mM KCl ([…], temperature not stated

TTGGGGTTATTTTGGGAGGGCGGGGGTT [RHA0385 (biotinylated)]
pKd [1]: 10.30
pKd [2]: 8.96
